Test results: the supplement of paper PMC9942255
“And” between values parts separate entries of the source, which are not always exact repeats. Equal entries are not always repeated.

What follows are sequences tested on Bacillus subtilis DB104 (SP-AmyQ fusion secretion) (assay: AmyQ secretion efficiency, weighted average sort bin (1 = best secretion, 10 = worst) (bin number (weighted average, 1-10)); higher = lower secretion efficiency).
Method in brief: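 The secretion score gives the average bin number weighted by read frequency and normalised to beads per bin, with low-abundance sequences excluded. Bins were 10 equally populated green/red fluorescence ratio fractions of occupied ~65 nL alginate beads, sorted by large-particle flow cytometry. The beads held fluorescein-starch and about 0.3 cells each of an amyE-integrated B. subtilis DB104 library fusing designed signal peptides to mature AmyQ, and they were grown about 13 h at room temperature and stained with nile red before sorting and Illumina sequencing.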

Sequence | AmyQ secretion efficiency
MKWMCTKCCTYQQLAGGAAQAEAV | 7.81
MTKRGIQAFAGGIILATAVLAAVFYLTDEDQAAAD | 6.91
MRFTKVVGFLSVLGLAAVFPLTAQAAKR | 5.46
MKWMCSICCAAVLLAGGAIQAEAV | 2.58
MKKVMLATALFLGLTPAGANAASK | 2.96
MPYLKRVLLLLVTGLFMSLFAVTATPSAQTG | 4.75
MTTKFTALAVFLKEHTQASLL | 6.23
MKKLLAAGIIGLLTVSIASPSFGAEK | 4.39
MRFTKVVGFLSVLGLAAVFPLTCQAEKA | 2.19
MKKWIYVVLVLSIAGIGGFSVHSASS | 5.94
MMSSISIFITCLLITLLTMGGMIASPASAAGT | 2.44
MKKTIMSFVAVAALSTTAFVLSSFGAHASAKEI | 3.42
MPYLKRVLLLLVTGLFMSLFAVTATGSAQTG | 1.13
MKLAKRVSALTPSTTLAITAKYKEL | 5.07
MRKYTVIASILLSFLSVLKKKKHHKSKAFPV | 7.85
MRPVFPLILSAVLFLSCFFGARQTEASWSKR | 4.13
MKKKQVMLALTAAAGLGLTALAIVSSFVHSAPAAKAAPL | 5.73
MLKKVKRAAFILVGSTLGAFSFSSDASAKHV | 1.33
MKKQSMALVILGALGTSYISADSS | 5.2
MRKYTVRRKRKRSFLSVLSGGHHESKAFPV | 7.56
MKKLLAAGIIGLLTVSIASPGFVFSFAAEK | 8.62
MKRYYVRMTLPLLIVCLAFSSFSASARAASE | 2.74
MKKIWIGMLAAAVLLLTKPKESLADAA | 3.56
MKRLFMKASLVLFAVVFVFAVKGAPAKADEE | 2.81
MKKQIITATTAVVLGSTGAASAQSI | 4.95
MKRLFMKASLVLFAVVFVFAVKGADEEDEEEAKAETH | 7.15

Sequence | AmyQ secretion efficiency
MKLKKRVSMFLVALLMCLLLFVSTPAKAVKT | 4.33
MIIWIYVVLVLSIAGIGGFSVHAASS | 7.11
MKRIRIPMTLALGAALTIAPLSFASMEEN | 6.12
MKKRRLIGFLVLVPALIMSGITLIEANKK | 6.64
MRFTKFTFIMITVVGFLSVLGLAAVFPLTAQAEKA | 1.81
MKRLLSTLLIGIMLLFFAGVAFAKQD | 3.63
MKKWLKKKRKKAIAIVLFMYTKGEAKAAGM | 7.14
MKLWMRKTLVVLFTIVTFGLKKRPAALMADKP | 6.91
MKKLFIFSAILTLSIFAPNETFAQTA | 2.72
MRKYTVIASILLSFLSVLASTVFVSKAFPV | 8.75
MLCVMMLLFSAIASFPVSPQAKDQ | 6.39
MKRIRIPMTLALGAALTIAPLSFASNEEN | 7.9
MKKKQVMLALTAAAGLGLTALHSAPAAKAAPK | 1.55
MKKQIITATTAVVLGSTLFAAASSTGAASAQSI | 3.24
MKSKWMSGLLLVAVGFSFTQVMNHAGET | 5.68
MSLMIVFMTLPLLIVCLAFSSFSASARAASE | 4.54
MKKLLAAGIIGLLTVSIASPHFAAEK | 7.4
MRNLTKTSLLLAGLCTAAQMVFVTHLSAEES | 3.52
MKKKKKRVGLLAGCLAAGGFSYNAFATEN | 6.9
MFNRLFRVCFLAALIMAFTLPNSHYAQKP | 6.53
MRKAVLLSLIMLIAGFLISFSFQM | 7.21
MKVLLSALLLLLFAFEPSRSGKKL | 6.31
MIKVLMAFIICLSLILSVLAAPPSGAKAESV | 1.52
MKVPKTMLLSTAAGLLLSLTATSDSAHYV | 6.94
MKKQIITATTAVVLGSTLFAGAGSAQSI | 1.62
MNKLKRLSMLTVMIASVFIFSSHVLAAQY | 2.99

Sequence | AmyQ secretion efficiency
MRPVFPLILSAVLFLSCFFGARQTEASSSKR | 3.03
MKLKKRVSMFLVALTMCGGLFVTPAKAVST | 2.23
MRKTIFAFLTGLMMFFGTITAASASPD | 1.98
MSTNLLSSLAISALSLGLLVSAPTASFAAES | 3.94
MKMKSGMEQAVSVLLLLSRLPASLTSE | 3.77
MKWMCKRCCRRKRLAGGAAQAEAV | 7.06
MKVPKTMLLSTAAGLLLSLTATSISAHYV | 6.77
MKRFSTAYLLLGILCSAAVFLIGAPSRALGARR | 7.6
MKSKWMSGLLLVAVGFSFRKKMVHAGET | 7.87
MKNMSCKLVVSVTLFFSFLTIGPLLHAQNS | 1.77
MLFKKWMVGLLAGCLAAGGFSYNAFATEN | 4.2
MIAYFGKCLLLVTIMFLGVLFGMQQANHG | 6.54 and 6.99 and 8.58
MKKIWIGMLAAAVLLLMVPKVGLADAA | 3.24
MKKQIITATTAVVLGSTLFAGAASAQKR | 2.23
MTKKAKKKKLVCVLLISGWLAPAASASAQTT | 2.39
MKKKLAAGLTASAIVGTTLVVTPSEAATI | 3.77
MKKSQYFIVFICFFVLFSVHPIAVAAADS | 3.83
MIKRFSLIMMTGLLFGLTSPAFAAEK | 4.15
MKRSISIFITCLLITLLTMGGMIASPASIAGT | 4.57
MNRRKILLSSALSLGMLVSAAPVLATSS | 2.39
MKKTIMSFVAVAALSTTAFEEDHASAKEI | 2.56
MKKAFLVFLSVVLVTTVFLVVSFESVAQAKQL | 2.33
MKNMSCKLVVSVTLFFSFLTIGPLAHDQNS | 6.5
MTKLKMLSMLTVMIASLFIFSKKRRRKALAVQY | 7.47
MKKIWIGMLAAAVLLLMVPKVSPAVPSGFSLADAA | 6.35
MKNMSCKLVVSVTLFFSFLTIGPLAHADDE | 3.5

Sequence | AmyQ secretion efficiency
MKKWIYVVLVLSIAGIGGFSSHAASS | 6.17
MKLKKRVSMFLVALTMCGGLFVRRAKAVKT | 7.34
MKRIRIPMKLALGAALTIAPLSFASAEEN | 4.57
MLKRTSLFISSAVLLSILLPSGQAHAQSA | 2.05
MMIKQCVICLSLLVFGTTAVHAEET | 1.9
MAIIIAIIAAVIVIAALITFNVRNVSPG | 8.03
MRPQFPLILSAVLFLSCFFGARQTEASASKR | 4.77
MKKWMAGLFLAAAVLLCLMVPQQCQGASS | 2.09
MRFTKTVGFLSVLGLAAVFPLTAQAEKA | 2.59
MKKAFLVFLSVVVKQQESVAQAKQL | 7.51
MKKTIMSFVAVAALSTTAFGAHASRKEI | 4.66
MKKIAGVLTVAAAAMTAKMYATAKGN | 7.41
MRKKTKNRLISSVLFMVVIMILLFSPGAAGASSK | 1.52
MFSRKILLSSALSFGMLISAVPALAAGT | 3.61
MAIIIAIIAAVIVIAALITFNVRNPSPG | 7.75
MRKRRKRGIQAFAGGIILATAVLAAVFYLTDEDQAAAV | 6.73
MKRFILVLSFLSIIVAYPIQVNASPM | 3.06
MTKKAWFLPLVCVLLISGWLAPAASASAQTK | 1.59
MKNMSCKLKKSVTLFFSFLTIGPLAHAQNS | 3.34
MKRCKRRRLIVCSLAAILLLIPSVSFAADS | 3.97
MKQCQKSRKRRRQFLVSLIIGTFVISVPFMANAQSD | 1.71
MKKRKRKTLVVLFTIVTFGLVSPPAALMADKP | 2.34
MKLWMRKTLVVLFTIVTFGLVSPPAAGMADKP | 3.4
MKKQIITATTAVVLGSTLFAGASSAQSI | 2.25
MPYLKRVLLLLVTGLFMSLFRKKATASAQTG | 7.42
MRKNRILALFVLSLGLLSFMVTPVSRASK | 8.98

Sequence | AmyQ secretion efficiency
MKKRLIAPMLLSAASLAFFAMSGSAQRAAY | 6.9
MKRLLVSLRVWMVFLMNWVTPDRKTSAAAVY | 5.14
MKRLFMKYKRYQKQVVFVFAVKGAPAKAETH | 7.88
MKRSSGKQLIGIMLLTFAPSAFAKQD | 3.5
MKKRLIGFLVLVPALIMIEANKK | 6.53
MTMLRKIIGWILLLCIIPLFAFTVIPSGKEV | 8.07
MKKVMLATALFLGLTPAGANAARR | 4.33
MRSKKLWISLLFALTLIFTMAFSNMSAQPAGK | 3.56
MKVPKTMLLSTAAGLLLSLTATSVSIHYV | 5.12
MKLKKRVSMFLVALTMCGGLFVRRRKRAKAVKT | 6.98
MFKKHSRSLLIIFLLASAVLAKPIEAHTV | 4.1
MRKKCSVCKRILVLLLSCLSGKSAYAATS | 7.44
MKRIRIPMTLALGAALTIAPLSFASAAPK | 1.85
MLKKIALTLCPAIVGSLLFFTAPQSAHVS | 5.63
MTMLRKIIGWILLLCIIPLFAFTVIASPKEV | 7.22
MKKWTIIAVSLAIAIVLFMYTKGEAKAAGM | 2.14
MKKWLIIAVSLAIAIVLFMYTKGEAKAAGK | 2.87
MKVPKTMLLSTAAGLLLSLTVSAHYV | 5.02
MKKWMAGLFLAAAVLLCLMVPQQIQGKKK | 4.71
MRPVFPLILSAVLFLSCFFGARQTEASDSKR | 2.12
MFNRLFRVCFLAALIMAFTLPNSFYAQKP | 6.02
MKRLRRKRRRWMVFLMNWVTPDRKTAAAAVY | 6.85
MKSKWMSGLLLVAVGFSFTQVMGGFFAVHAGET | 7.03
MKRIRIPMTLALGAALTIAPLSFASGEEN | 3.92
